# According to the DeepSol protein solubility set:
# Assay: soluble on expression in E. coli; label from the status in PepcDB or PDB records
row,Sequence,soluble on expression in E. coli
1,MTSRSNSGPGIQRRRGAIKHARVHEIRGHQFVATFFRQPHFCSLCSDFMWGLNKQGYQCQLCSAAVHKKCHEKVIMQCPGSAKNTKETMALKERFKVDIPHRFKTYNFKSPTFCDHCGSMLYGLFKQGLRCEVCNVACHHKCERLMSNLCGVNQKQLSEMYHEIKRGTHATASCPPNIANLHLNGETSKNNGSLPNKLKNLFKSHQYSVEEQKETDEYMDNIWGGGDGPVKKFALPHFNLLKVLGKGSFGKVMLVELKGKNEFYAMKCLKKDVILEDDDTECTYIERRVLILASQCPFLCQLFCSFQTNEYLFFVMEYLNGGDLMHHIQQIKKFDEARTRFYACEIVVALQFLHTNNIIYRDLKLDNVLLDCDGHIKLADFGMAKTEMNRENGMASTFCGTPDYISPEIIKGQLYNEAVDFWSFGVLMYEMLVGQSPFHGEGEDELFDSILNERPYFPKTISKEAAKCLSALFDRNPNTRLGMPECPDGPIRQHCFFRGVDWKRFENRQVPPPFKPNIKSNSDASNFDDDFTNEKAALTPVHDKNLLASIDPEAFLNFSYTNPHFSK,not soluble
2,MTSSPELARAVAATLARHVTDVVICPGSRNSPLSLELIARDDIRVHTRIDERSAAFLALGLARSSKRHVAVVTTSGTAVANCAPAMIEAAYSHTPLIMVSADRPERLHGTGANQTIEQRGIFNVVDTDHVVDITDLNSISFARNVIHINVALDVPLVDVLPEV,not soluble
3,MTSSPPSFMSYEDRIQEGDTVIVYVTYGQMVPTIVKRGQTLMMKYGALRHEFIIGKRWGQRLSATAGYVYILRPTSDLWTRALPRRTQILYTADCAQILSLLDAKPGSVICESGTGSGSLSHAIALTVAPTGHLYTHDIDETRTHKVLEEFKVHGLGSVTTAVVRNVCTSGFHVENAADGVFLDVPAPWEAIPFAAKSIFRARGGRLVSFSPCLEQVQRACLAMAAAGFVSIETIELVPEQKKIVSQHRQTLEEFEELGDAYPKERKRNVDGTIVEQSSSAIPRITIAIVYPYSQPTHTGYLTHATMLPVAE,not soluble
4,MTTASTSQVRQNYDQDSEAAINRQINLELYASYVYLSMSYYFDRDDVALKNFAKYFLHQSHEERCHAEKLMKLQNQRGGRIFLQDIQKPDRDDWESGLNAMEAALQLEKNVNQSLLELHKLATDKNDPHLSDFIETHYLNCQVCAIKCLGDHVTNLRKMGAPESGLAEYLFDKHTLGDSDNES,soluble
5,MTTATAGLAVELKQSTAQAHEKAEHSTFMSDLLKGRLGVAEFTRLQEQAWLFYTALEQAVDAVRASGFAESLLDPALNRAEVLARDLDKLNGSSEWRSRITASPAVIDYVNRLEEIRDNVDGPALVAHHYVRYLGNLSGGQVIARMMQRHYGVDPEALGFYHFEGIAKLKVYKDEYREKLNNLELSDEQREHLLKEATDAFVFNHQVFADLGKGL,soluble
6,MTTAVARLQPSASGAKTRPVFPFSAIVGQEDMKLALLLTAVDPGIGGVLVFGDRGTGKSTAVRALAALLPEIEAVEGCPVSSPNVEMIPDWATVLSTNVIRKPTPVVDLPLGVSEDRVVGALDIERAISKGEKAFEPGLLARANRGYLYIDECNLLEDHIVDLLLDVAQSGENVVERDGLSIRHPARFVLVGSGNPEEGDLRPQLLDRFGLSVEVLSPRDVETRVEVIRRRDTYDADPKAFLEEWRPKDMDIRNQILEARERLPKVEAPNTALYDCAALCIALGSDGLRGELTLLRSARALAALEGATAVGRDHLKRVATMALSHRLRRDPLDEAGSTARVARTVEETLP,soluble
7,MTTFPTLDPELAAALTMLPKVDFADLPNARATYDALIGAMLADLSFDGVSLRELSAPGLDGDPEVKIRFVTPDNTAGPVPVLLWIHGGGFAIGTAESSDPFCVEVARELGFAVANVEYRLAPETTFPGPVNDCYAALLYIHAHAEELGIDPSRIAVGGQSAGGGLAAGTVLKARDEGVVPVAFQFLEIPELDDRLETVSMTNFVDTPLWHRPNAILSWKYYLGESYSGPEDPDVSIYAAPSRATDLTGLPPTYLSTMELDPLRDEGIEYALRLLQAGVSVELHSFPGTFHGSALVATAAVSERGAAEALTAIRRGLRSLSPVS,soluble
8,MTTHTGGCQCGAVRFRATGDLQDSSICHCRMCQKAFGAYYAPLVSVRNVEFEWTRGEPKRFQSSSVVKRGFCPECGTPLTYEAPDGVAVAAGAFDDPAALPPTIQWGVERKIDFVDTLHTLPAVATEDDLTQVDYLTNLVSYQHPDHDTENWPPEKR,not soluble
9,MTTIVGVRAREVLDSRGFPTVEAEVELEGGARGRAMVPSGASTGTHEALELRDGGKRYLGKGVRRAVENVNERIAPELVGMDALDQEGVDRAMLELDGTPNKANLGANAVLAVSLAVARAAAEALGLPLYRYLGGVQGVTLPVPLMNVINGGKHADNRVDFQEFMLVPAGAGSFAEALRIGAEVFHTLKAVLKEKGYSTNVGDEGGFAPDLRSNEEAVELLLLAIERAGYTPGQEVSLALDPATSELYRDGKYHLEGEGKVLSSEEMVAFWEAWVEKYPIRSIEDGLAEDDWEGWRLLTERLGGKVQLVGDDLFVTNPERLRAGIERGVANAILVKVNQIGTLSETLEAIRLAQRSGYRAVISHRSGETEDSFIADLAVAVNAGQIKTGSLSRSDRLAKYNQLLRIEEELGRAARFLGYAAF,soluble
10,MTTMPQRESTIAVPDDRRKQLGAFLRARRESLDPQRLGLPRVGRRRTPGLRREEVAMLADVGVTWYTWLEQGREVNPSEAVLVGVANALQCSPLETRHLFVLAGLTPPEATQVTVCEGISPGTRRMLDSLMPQPASIQKPNFDIVAWNDSFCRLMGIDFATLPEEDRNCIYLYLTHETWRSRIENRDVLPTFVSYFRAAMAEHRGDPAWENKLARFFAASSEFEALWHQRYEVRGVENQIKHFNHPQLGRFSLQQMYWYSAPRNGSRLLVYLPMDEAGEQALAWLDQH,not soluble
11,MTTMTNSLISNSVSSVPESLFSSASIHRPVAINPAMLAQFSINLPVLPFESSASLGTSTTSSSRCSSTESSAAPGKIRRGRPQQEIADGQDAHSQKKRHRRLYARQYRAQMRQKVENVKSLHDEKEQLELEVKALRQAVSGLQQENAQKDFLISILQLNNQINHS,not soluble
12,MTTTDKQLLYVRTEMTIPGVGTSIHIAELEPTSTTHCTLHRILELDPSNTIRGAAHGNAVAGMAAAPERTVPHPNSYANFPDITATHLLQEEFEVLWAEAVAKFSELR,not soluble
13,MTTVMKFGGTSVGSGERIRHVAKIVTKRKKEDDDVVVVVSAMSEVTNALVEISQQALDVRDIAKVGDFIKFIREKHYKAIEEAIKSEEIKEEVKKIIDSRIEELEKVLIGVAYLGELTPKSRDYILSFGERLSSPILSGAIRDLGEKSIALEGGEAGIITDNNFGSARVKRLEVKERLLPLLKEGIIPVVTGFIGTTEEGYITTLGRGGSDYSAALIGYGLDADIIEIWTDVSGVYTTDPRLVPTARRIPKLSYIEAMELAYFGAKVLHPRTIEPAMEKGIPILVKNTFEPESEGTLITNDMEMSDSIVKAISTIKNVALINIFGAGMVGVSGTAARIFKALGEEEVNVILISQGSSETNISLVVSEEDVDKALKALKREFGDFGKKSFLNNNLIRDVSVDKDVCVISVVGAGMRGAKGIAGKIFTAVSESGANIKMIAQGSSEVNISFVIDEKDLLNCVRKLHEKFIEKTNS,soluble
14,MTTVTVTTEVPSSGKTEDGHVFCDSSSAHIIEETEYVRQMRTTLEKIRNHMFKEKEGCGNARHKLDAEGSGNIQNGSDSTTDPTCLDLLMENMRRKDQQLLEMNRENEVLQIKLEASREAGAAALRNVAQRLFDNYQTQAGDLEKKHEGRKHLLQVNNLEKEQALKGSAESLNLLSEKLEEKHGQIVGLENRVQRMENNKELKTRVAHWTETPRTLVSKAVSTSELKTEGASPYLMLIRLRK,not soluble
15,MTVDHRQWAREAIRIIEADFQRSADTHLIPLETPGLPGVELYFKDESSHPTGSLKHRLARSLFLYALCNGWLRPAAPVIEASSGSTAISEAYFARLLGLPFIAVMPASTSKEKIAQIAFYGGQSHLVEDPTQIYAESERLARESGGHFMDQFTYAERATDWRANNNIAESIFQQMRHEPYPTPTWLISSPGTGGTLATLGRYVRYRQHCTRVLCADAERSVFFDAYVSGDRGLTLDCGSRIEGIGRPRVEASFLPEVIDAMVKVPDAWSLAAMHYLARRLGRRVGGSSGTNLIGALVAARQMVAAGEKGSLVAILCDGGERYATTYYDPVWLARQGYALEPLVEALAACIERGVALPDGLLVAG,not soluble
16,MTVKIALLGFGTVASGVPFLLKENGGKINQSAHSDIKVAKVLVKDEDEKNRLLAAGNDFNFVTNVDDILSDQDITIVVELMGRIEPAKTFITRALEAGKHVVTANKDLLAVHGAELLEIAQANKVALYYEAAVAGGIPILRTLANSLASDKITRVLGVVNGTSNFMVTKMVEEGW,not soluble
17,MTVPLTTRDRIALIPIAEIHILNPRTRNKKIHHELIENIKTVGLKRPITVSRRVSTQGSFNYDLVCGQGRLEAFLALEATEIPAFVIDSAEEDCLVMSLVENVARRQHRPIDLMNEVGRLKGRGKTDAEIATIIGSTSSWVNMIVNLIERGEEKLLSAVETGLIPLSMATDIARSSESDIQDLLTDAYERGIRGKKITKLRHLLELRAKKDKLVRGNPLGVSQNKKKRLTPTDLRHLFEREAERQRLMVKKAAFTHDRVVFSIQAIKELLAVSDFEKLLSTEHLDSMPKLIQARLSNRGGL,not soluble
18,MTVQIENEFLIATFAEEGAELVSLQSKETGIEYIWQGNPEFWARHAPVLFPIVGRLKEDTYMYQNQAYHLTQHGFARDQVFDVIEKGGEEVSFSLKSTKETKKKYPFDFELVITYTLEHQELTVNYQVEYTGKEEMYFGIGGHPAFNVPLESSLTFEDYYLSFSPKKSRTQIPLAGPFIDLANKTLAQTNTSFDLTHQLFENDAMIFETKGQTAITIATDESDHQVTLSYPEMPFVGIWSPTPKEAPFVCIEPWCGIADAVDATGQLAEKFGINKLPANELFKTQYMISVKLEHHHHHH,not soluble
19,MTVQVFHTLFLTNDCGDHVVLINTREIALPGDEWVKRVYFHHTGYPGGASWTLAWQLHEKDPTMVMKKAVYNSMRGNLQRRHTMQRLHLFADDQVPEEILQNVTNQIRTPRSIPQRLDHIDKETLENFPNIMDYPKDYILRLEHHHHHH,not soluble
20,MTVWSKLLSALRGGANEVGEAIVDSQALRILDQEIRDADVELRKSREALASIMARHRLAQERVEKGAAQVAEYEQYAIKALEAGNEELAREVAEKIATLENQLEGERAQVAEFAASVAQLRKSVSQAEGNIRQLKQQVDTVKATESVQKAQMAVAQRYGNSKSKLQTAVDSLERIKQRQAERAATMDAAAELASAAAPDDALDAKLRAAGIKASGNSVDGVLARLKEKGKAAAALEHHHHHH,not soluble
21,MTYEAGCGLIKALEDPDNRVRQRAVKTLGKRGNPDVLEDLMEALKDSRQPVQEAASEALRKIIAASDSVPVLVKALDATDRNVRKAAIEALWKAGTPEAIPPLLRELDDADWYLRSRAADALADIASPEAALGLIKVMDIHDSPVKKIIVNALGKIGTVEAVEGLVKALEDLEHHHHHH,not soluble
22,MTYSHEVEHMCVVKKGPNHGPAPIPEEGKWVKSKEIVDISGLTHGIGWCAPQQGACKLTLNVKEGVIQEALVETIGCSGMTHSAAMAAEILPGKTILEALNTDLVCDAINTAMRELFLQIVYGRTQSAFSEGGLIIGAGLEDLGKGLRSQVGTLYGTLAKGPRYLEMAEGYIKNIFLDKNDEICGYEFVHMGKFMDEIKKGTDANEALKKVTGTYGRVTAEQGAVKHIDPRHE,not soluble
23,MTYSIVAISGSPSRNSTTAKLAEYALAHVLARSDSQGRHIHVIDLDPKALLRGDLSNAKLKEAVDATCNADGLIVATPIYKASYTGLLKAFLDILPQFALAGKAALPLATGGSPAHVLALDYGLRPVLHSMGVRHVVQSFFLVQSQFSVVDGKLAVEDDVASQLNNAIDHFRLSLSSEPSTRHLGHPRPSLDATRAA,soluble
